Experimental findings from patent publication US20220135701A1 (Genentech, published 2022) are described below.

In this test the target is T1, human MerTK (human, UniProt Q12866 26-499).
T1 construct: also called HuMER
T1 sequence: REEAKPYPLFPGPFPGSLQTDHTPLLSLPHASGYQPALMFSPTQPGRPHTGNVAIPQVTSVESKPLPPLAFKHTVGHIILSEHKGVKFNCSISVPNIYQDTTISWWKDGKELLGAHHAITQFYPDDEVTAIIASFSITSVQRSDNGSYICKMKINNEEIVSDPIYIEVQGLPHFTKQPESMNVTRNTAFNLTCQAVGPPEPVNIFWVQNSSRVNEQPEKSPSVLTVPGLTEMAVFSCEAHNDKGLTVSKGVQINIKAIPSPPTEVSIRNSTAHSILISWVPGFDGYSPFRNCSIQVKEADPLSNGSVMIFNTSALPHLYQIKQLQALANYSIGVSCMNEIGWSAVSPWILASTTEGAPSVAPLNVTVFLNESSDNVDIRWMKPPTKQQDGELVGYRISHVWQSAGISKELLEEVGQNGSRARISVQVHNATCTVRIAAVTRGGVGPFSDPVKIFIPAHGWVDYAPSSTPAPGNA
The test can be described thus: SPR BIAcore T200, Ab captured, 37C. The protocol:
Each humanized mutation variant was subject to BIAcore analysis to determine the important rabbit residues for binding and stability. Binding affinity determinations were obtained using Surface Plasmon Resonance (SRP) measurements from a BIAcore™-T200 instrument. Briefly, each humanized mutation variant antibody was captured to achieve approximately 100 RU (Response Units). Then, 3-fold serial dilutions of human MerTK (0.4 nM to 100 nM) diluted in HBS-EP buffer (0.01M HEPES pH 7.4, 0.15M NaCl, 3 mM EDTA and 0.05% v/v surfactant P20) was injected into the BIAcore™-T200 instrument at 37° C. with a flow rate of 30 μl/min. Association rates (kₒₙ) and dissociation rates (koff) were calculated using a simple one-to-one Langmuir binding model (BIAcore T200 evaluation software version 2.0). The equilibrium dissociation constant (KD) was calculated as the ratio koff/kₒₙ.
(In general: In SPR one partner is held on a chip, and binding of the other changes the refractive index at the surface.)

B1: h10F7.V1 HC F91Y (antibody, name in Kabat numbering, V domains shown)
VH: EQQLVESGGGLVQPGGSLRLSCAVSGFSLSGYAMSWVRQAPGKGLEYIGVISSSGSSYYPSWAKGRFTISKDSSKNTVYLQMGSLRAEDMAVYYCARVQFYVGYAVYGYGIIDRLDLWGQGTLVTVSS
VL: DAVLTQSPDSLAVSLGERATINCQSSKSVYNNNWLSWYQQKPGQPPKLLIYRASTLESGVPDRFSGSGSGTDFTLTISSLQAEDVAVYFCAGGYSSSSSANAFGGGTKVEIK
notes: Framework variant of h10F7.v1 (human IgG1)
One may read the Kd as the concentration at which binding is half-saturated. Higher therefore signals lower affinity. Consider B1, for which the dissociation constant Kd came to 6.4 nM.

B2: h10F7.V1 HC S73N (antibody, human IgG1, name in Kabat numbering, V domains shown)
VH: EQQLVESGGGLVQPGGSLRLSCAVSGFSLSGYAMSWVRQAPGKGLEYIGVISSSGSSYYPSWAKGRFTISKDNSKNTVYLQMGSLRAEDMAVYFCARVQFYVGYAVYGYGIIDRLDLWGQGTLVTVSS
VL: DAVLTQSPDSLAVSLGERATINCQSSKSVYNNNWLSWYQQKPGQPPKLLIYRASTLESGVPDRFSGSGSGTDFTLTISSLQAEDVAVYFCAGGYSSSSSANAFGGGTKVEIK
notes: as for B1
B2 had a Kd of 7.6 nM.

B3: h10F7.V1 HC I48V (antibody, human IgG1, name in Kabat numbering, V domains shown)
VH: EQQLVESGGGLVQPGGSLRLSCAVSGFSLSGYAMSWVRQAPGKGLEYVGVISSSGSSYYPSWAKGRFTISKDSSKNTVYLQMGSLRAEDMAVYFCARVQFYVGYAVYGYGIIDRLDLWGQGTLVTVSS
VL: DAVLTQSPDSLAVSLGERATINCQSSKSVYNNNWLSWYQQKPGQPPKLLIYRASTLESGVPDRFSGSGSGTDFTLTISSLQAEDVAVYFCAGGYSSSSSANAFGGGTKVEIK
notes: as for B1
As for B3, the Kd worked out at 9.3 nM.

B4: h10F7.V1 HC Q2V (antibody, human IgG1, name in Kabat numbering, V domains shown)
VH: EVQLVESGGGLVQPGGSLRLSCAVSGFSLSGYAMSWVRQAPGKGLEYIGVISSSGSSYYPSWAKGRFTISKDSSKNTVYLQMGSLRAEDMAVYFCARVQFYVGYAVYGYGIIDRLDLWGQGTLVTVSS
VL: DAVLTQSPDSLAVSLGERATINCQSSKSVYNNNWLSWYQQKPGQPPKLLIYRASTLESGVPDRFSGSGSGTDFTLTISSLQAEDVAVYFCAGGYSSSSSANAFGGGTKVEIK
notes: as for B1
For B4, binding was put at a Kd of 5.9 nM.

B5: h10F7.V1 HC K71R (antibody, human IgG1, name in Kabat numbering, V domains shown)
VH: EQQLVESGGGLVQPGGSLRLSCAVSGFSLSGYAMSWVRQAPGKGLEYIGVISSSGSSYYPSWAKGRFTISRDSSKNTVYLQMGSLRAEDMAVYFCARVQFYVGYAVYGYGIIDRLDLWGQGTLVTVSS
VL: DAVLTQSPDSLAVSLGERATINCQSSKSVYNNNWLSWYQQKPGQPPKLLIYRASTLESGVPDRFSGSGSGTDFTLTISSLQAEDVAVYFCAGGYSSSSSANAFGGGTKVEIK
notes: as for B1
The molecule B5 came in with a dissociation constant (Kd) of 15.3 nM.

B6: h10F7.V1 HC V24A (antibody, human IgG1, name in Kabat numbering, V domains shown)
VH: EQQLVESGGGLVQPGGSLRLSCAASGFSLSGYAMSWVRQAPGKGLEYIGVISSSGSSYYPSWAKGRFTISKDSSKNTVYLQMGSLRAEDMAVYFCARVQFYVGYAVYGYGIIDRLDLWGQGTLVTVSS
VL: DAVLTQSPDSLAVSLGERATINCQSSKSVYNNNWLSWYQQKPGQPPKLLIYRASTLESGVPDRFSGSGSGTDFTLTISSLQAEDVAVYFCAGGYSSSSSANAFGGGTKVEIK
notes: as for B1
Take B6: the Kd was found to be 9.4 nM.

B7: h10F7.V1 HC G49S (antibody, human IgG1, name in Kabat numbering, V domains shown)
VH: EQQLVESGGGLVQPGGSLRLSCAVSGFSLSGYAMSWVRQAPGKGLEYISVISSSGSSYYPSWAKGRFTISKDSSKNTVYLQMGSLRAEDMAVYFCARVQFYVGYAVYGYGIIDRLDLWGQGTLVTVSS
VL: DAVLTQSPDSLAVSLGERATINCQSSKSVYNNNWLSWYQQKPGQPPKLLIYRASTLESGVPDRFSGSGSGTDFTLTISSLQAEDVAVYFCAGGYSSSSSANAFGGGTKVEIK
notes: as for B1
Molecule B7 displayed a Kd of 9.5 nM.

B8: h13B4.V1 HC F91Y (antibody, name in Kabat numbering, V domains shown)
VH: EQQLVESGEGLVQPGGSLRLSCAVSGFSLSSYAMGWVRQAPGKGLEWIGIINSYGNTYYANWAKGRFTISRDSSKNTVYLQMGSLRAEDMAVYYCARDPGVSSNLWGPGTLVTVSS
VL: DVQMTQSPSTLSASVGDRVTITCQASQNIYSGLAWYQQKPGKPPKLLIYGASKLASGVPSRFSGSGSGTEFTLTISSLQPDDFATYYCQATYYSSNSVAFGGGTKVEIK
notes: Framework variant of h13B4.v1 (human IgG1)
On to B8, for which binding was put at a Kd of 4.5 nM.

B9: h13B4.V1 HC P105R (antibody, name in Kabat numbering, V domains shown)
VH: EQQLVESGEGLVQPGGSLRLSCAVSGFSLSSYAMGWVRQAPGKGLEWIGIINSYGNTYYANWAKGRFTISRDSSKNTVYLQMGSLRAEDMAVYFCARDPGVSSNLWGRGTLVTVSS
VL: DVQMTQSPSTLSASVGDRVTITCQASQNIYSGLAWYQQKPGKPPKLLIYGASKLASGVPSRFSGSGSGTEFTLTISSLQPDDFATYYCQATYYSSNSVAFGGGTKVEIK
notes: as for B8
For the molecule B9, the Kd amounted to 4.2 nM.

B10: h13B4.V1 HC S73N (antibody, human IgG1, name in Kabat numbering, V domains shown)
VH: EQQLVESGEGLVQPGGSLRLSCAVSGFSLSSYAMGWVRQAPGKGLEWIGIINSYGNTYYANWAKGRFTISRDNSKNTVYLQMGSLRAEDMAVYFCARDPGVSSNLWGPGTLVTVSS
VL: DVQMTQSPSTLSASVGDRVTITCQASQNIYSGLAWYQQKPGKPPKLLIYGASKLASGVPSRFSGSGSGTEFTLTISSLQPDDFATYYCQATYYSSNSVAFGGGTKVEIK
notes: as for B8
Molecule B10 registered a Kd of 4.7 nM.

B11: h13B4.V1 LC P43A (antibody, human IgG1, name in Kabat numbering, V domains shown)
VH: EQQLVESGEGLVQPGGSLRLSCAVSGFSLSSYAMGWVRQAPGKGLEWIGIINSYGNTYYANWAKGRFTISRDSSKNTVYLQMGSLRAEDMAVYFCARDPGVSSNLWGPGTLVTVSS
VL: DVQMTQSPSTLSASVGDRVTITCQASQNIYSGLAWYQQKPGKAPKLLIYGASKLASGVPSRFSGSGSGTEFTLTISSLQPDDFATYYCQATYYSSNSVAFGGGTKVEIK
notes: as for B8
B11 came in with a dissociation constant (Kd) of 4.6 nM.

B12: h13B4.V1 HC G49S (antibody, human IgG1, name in Kabat numbering, V domains shown)
VH: EQQLVESGEGLVQPGGSLRLSCAVSGFSLSSYAMGWVRQAPGKGLEWISIINSYGNTYYANWAKGRFTISRDSSKNTVYLQMGSLRAEDMAVYFCARDPGVSSNLWGPGTLVTVSS
VL: DVQMTQSPSTLSASVGDRVTITCQASQNIYSGLAWYQQKPGKPPKLLIYGASKLASGVPSRFSGSGSGTEFTLTISSLQPDDFATYYCQATYYSSNSVAFGGGTKVEIK
notes: as for B8
In turn, B12 yielded a dissociation constant (Kd) of 51.5 nM.

B13: h13B4.V1 LC V21 (antibody, human IgG1, V domains shown)
VH: EQQLVESGEGLVQPGGSLRLSCAVSGFSLSSYAMGWVRQAPGKGLEWIGIINSYGNTYYANWAKGRFTISRDSSKNTVYLQMGSLRAEDMAVYFCARDPGVSSNLWGPGTLVTVSS
VL: DIQMTQSPSTLSASVGDRVTITCQASQNIYSGLAWYQQKPGKPPKLLIYGASKLASGVPSRFSGSGSGTEFTLTISSLQPDDFATYYCQATYYSSNSVAFGGGTKVEIK
notes: Framework variant of h13B4.v1 (human IgG1); read as V2I (V at VL position 2 in v1, I in v16); also called LC V2I
As for B13, the Kd was 5.6 nM.

B14: h13B4.V1 HC W47Y (antibody, human IgG1, name in Kabat numbering, V domains shown)
VH: EQQLVESGEGLVQPGGSLRLSCAVSGFSLSSYAMGWVRQAPGKGLEYIGIINSYGNTYYANWAKGRFTISRDSSKNTVYLQMGSLRAEDMAVYFCARDPGVSSNLWGPGTLVTVSS
VL: DVQMTQSPSTLSASVGDRVTITCQASQNIYSGLAWYQQKPGKPPKLLIYGASKLASGVPSRFSGSGSGTEFTLTISSLQPDDFATYYCQATYYSSNSVAFGGGTKVEIK
notes: as for B8
With B14, the Kd turned out to be 3.1 nM.

B15: h13B4.V1 HC Q2V (antibody, human IgG1, name in Kabat numbering, V domains shown)
VH: EVQLVESGEGLVQPGGSLRLSCAVSGFSLSSYAMGWVRQAPGKGLEWIGIINSYGNTYYANWAKGRFTISRDSSKNTVYLQMGSLRAEDMAVYFCARDPGVSSNLWGPGTLVTVSS
VL: DVQMTQSPSTLSASVGDRVTITCQASQNIYSGLAWYQQKPGKPPKLLIYGASKLASGVPSRFSGSGSGTEFTLTISSLQPDDFATYYCQATYYSSNSVAFGGGTKVEIK
notes: as for B8
As to B15, the affinity, expressed as Kd, was 4.5 nM.

B16: h13B4.V1 HC V24A (antibody, human IgG1, name in Kabat numbering, V domains shown)
VH: EQQLVESGEGLVQPGGSLRLSCAASGFSLSSYAMGWVRQAPGKGLEWIGIINSYGNTYYANWAKGRFTISRDSSKNTVYLQMGSLRAEDMAVYFCARDPGVSSNLWGPGTLVTVSS
VL: DVQMTQSPSTLSASVGDRVTITCQASQNIYSGLAWYQQKPGKPPKLLIYGASKLASGVPSRFSGSGSGTEFTLTISSLQPDDFATYYCQATYYSSNSVAFGGGTKVEIK
notes: as for B8
B16 showed an equilibrium dissociation constant (Kd) of 6 nM.

B17: h13B4.V1 HC V78L (antibody, human IgG1, name in Kabat numbering, V domains shown)
VH: EQQLVESGEGLVQPGGSLRLSCAVSGFSLSSYAMGWVRQAPGKGLEWIGIINSYGNTYYANWAKGRFTISRDSSKNTLYLQMGSLRAEDMAVYFCARDPGVSSNLWGPGTLVTVSS
VL: DVQMTQSPSTLSASVGDRVTITCQASQNIYSGLAWYQQKPGKPPKLLIYGASKLASGVPSRFSGSGSGTEFTLTISSLQPDDFATYYCQATYYSSNSVAFGGGTKVEIK
notes: as for B8
Consider B17, for which the Kd turned out to be 9.2 nM.

B18: h13B4.V1 HC I48V (antibody, human IgG1, name in Kabat numbering, V domains shown)
VH: EQQLVESGEGLVQPGGSLRLSCAVSGFSLSSYAMGWVRQAPGKGLEWVGIINSYGNTYYANWAKGRFTISRDSSKNTVYLQMGSLRAEDMAVYFCARDPGVSSNLWGPGTLVTVSS
VL: DVQMTQSPSTLSASVGDRVTITCQASQNIYSGLAWYQQKPGKPPKLLIYGASKLASGVPSRFSGSGSGTEFTLTISSLQPDDFATYYCQATYYSSNSVAFGGGTKVEIK
notes: as for B8
For the molecule B18, the Kd worked out at 5.8 nM.
